One assay deals with dCas9-SunTag10×_v4. In words: cell-based or functional assay.
Assay [1] deals with mito-mCherry-4×GCN4pep (yeast). In words: FRAP of scFv-GCN4-GFP bound to the mitochondrial scaffold in U2OS cells.
In assay [2] the target is mito-mCherry-4×GCN4pep with short linker (GGSGG; SEQ ID NO:3) (yeast). Briefly: quantitative fluorescence microscopy on mitochondria, normalized to a sfGFP-mCherry fusion; antibodies per 4× array, short linker.

Consider 2 substances from patent publication US20170219596A1.

Turning to scFv-GCN4-GFP-NLS-VP64, in the assay with dCas9-SunTag10×_v4, the activation of CDKN1B transcription (mRNA by qPCR, K562 cells) is 330% and the activation of CXCR4 expression (CXCR4 protein level by FACS, K562 cells) is 10 to 50 fold.
Take scFv-GCN4-sfGFP-GB1: the half-life of GFP fluorescence recovery (FRAP) in assay [1] was in the range of 5 to 10 min. Further, the average GFP:mCherry molar ratio in assay [2] came out at 3.4.
